What was measured:
[1] = biological target: S453P C-terminal peptide (CTP), His6-tagged, released from the chain by trypsin cleavage of S453P proaerolysin (Aeromonas hydrophila); assay: SPR; His-tagged proaerolysin bound to nickel charged NTA sensor chip via the His tag at the C-terminus of the CTP; trypsin added and release of the mature toxin followed; apparent Koff, by the authors only comparative
[2] = biological target: S453P C-terminal peptide (CTP), His6-tagged, released from the chain by trypsin cleavage of S453P proaerolysin (Aeromonas hydrophila); assay: pull-down; proaerolysin processed with trypsin agarose beads at pH 8, incubated with His-bind resin preloaded with nickel (held by the His6 tag of the CTP), 4°C, 30 min, extensively washed; SDS-PAGE and Coomassie staining

Substance: aerolysin (mature toxin obtained by trypsin cleavage of proaerolysin) (from UniProt P09167 24-445) (natural protein)
- koff [1]: 0.026 s⁻¹
- percent of the total aerolysin in the unbound fraction (released from the bead-bound CTP) [2]: 40%

— PMC3136475
